Data as given in doi:10.1101/2023.01.13.523903 (bioRxiv, 2023).

Biological target: Myc-DDK tagged human CD2-associated protein (human, UniProt Q9Y5K6 1-639)
Assay: peptide or protein array

Myc-DDK tagged human CD2-associated protein, sequence (Q9Y5K6 whole entry): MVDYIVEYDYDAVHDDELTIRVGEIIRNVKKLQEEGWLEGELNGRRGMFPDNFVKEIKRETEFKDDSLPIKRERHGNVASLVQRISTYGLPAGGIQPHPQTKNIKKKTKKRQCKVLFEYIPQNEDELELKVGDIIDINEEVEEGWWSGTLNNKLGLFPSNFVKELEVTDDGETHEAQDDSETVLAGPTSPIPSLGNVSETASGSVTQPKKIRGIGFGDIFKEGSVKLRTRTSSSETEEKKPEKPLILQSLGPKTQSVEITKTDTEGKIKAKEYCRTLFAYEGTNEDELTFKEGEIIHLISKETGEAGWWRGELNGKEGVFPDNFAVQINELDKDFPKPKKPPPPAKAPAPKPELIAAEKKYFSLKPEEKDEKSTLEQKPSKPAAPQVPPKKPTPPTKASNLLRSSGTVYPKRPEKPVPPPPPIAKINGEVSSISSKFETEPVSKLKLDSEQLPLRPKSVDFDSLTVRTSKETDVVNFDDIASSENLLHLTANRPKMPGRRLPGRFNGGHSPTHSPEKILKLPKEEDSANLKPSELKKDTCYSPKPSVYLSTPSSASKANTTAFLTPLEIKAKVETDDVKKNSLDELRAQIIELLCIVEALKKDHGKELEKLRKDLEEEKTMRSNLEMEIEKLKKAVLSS

Row | Binder | binding result
1 | EAPQQRPVVPPRRPP [TKS4 peptide 188] | binds
2 | QRPVVPPRRPPPPKK [TKS4 peptide 189] | binds
